# Values of other authors as cited in patent US20050176623A1, “Non-invasive treatment of disease using amphipathic compounds” (priority 2004, published 2005).
# Conditions: fractional catabolic rate, kidney
substance,measurement,value
apolipoprotein A-I [apoA-I],normal clearance of apoA-I,approximately 0.3 pools/day
